Measurements as given in patent publication US20030133935A1 (published 2003).

B1: chimeric mouse/human IgG1 anti-platelet mAb (7E3) (antibody, INN chains, looked up, V domains shown)
VH: EVQLQQSGTVLARPGASVKMSCEASGYTFTNYWMHWVKQRPGQGLEWIGAIYPGNSDTSYIQKFKGKAKLTAVTSTTSVYMELSSLTNEDSAVYYCTLYDGYYVFAYWGQGTLVTVSA
VL: EIVLTQSPVTLSVTPGDSVSLSCRASRDISNNLHWFQQTSHESPRLLIKYASQSMSGIPSRFSGSGSGTDFTLSINSVETEDFGMYFCQQTNSWPYTFGGGTKLEIK
modifications: IgG1
B2: p55-sf2 TNF receptor/IgG1 fusion protein (Fc fusion)
chain: QVCPQGKYIHPQNNSICCTKCHKGTYLYNDCPGPGQDTDCRECESGSFTASENHLRHCLSCSKCRKEMGQVEISSCTVDRDTVCGCRKNQYRHYWSENLFQCFNCSLCLNGTVHLSCQEKQNTVCTCHAGFFLRENECVSCSNCKKSLECTKLCLPQIGTLVTVSS

Biological target: human tumor necrosis factor-α (TNFα) (human, UniProt P01375 77-233)
Sequence (P01375 77-233): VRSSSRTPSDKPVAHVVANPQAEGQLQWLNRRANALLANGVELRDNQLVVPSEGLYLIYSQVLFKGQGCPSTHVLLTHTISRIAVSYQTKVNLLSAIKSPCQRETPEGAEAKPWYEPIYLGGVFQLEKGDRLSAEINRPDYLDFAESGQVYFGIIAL
Assay: cell-based or functional assay

| Binder | IL-6 secreted by FS-4 fibroblasts (ng/ml), rhTNF 0.3 ng/ml, antibody 4 µg/ml (no antibody: 1.36) [ng/mL] | IL-6 secreted by FS-4 fibroblasts (ng/ml), rhTNF 1.5 ng/ml, antibody 4 µg/ml (no antibody: 2.00) [ng/mL] | IL-6 secreted by FS-4 fibroblasts (ng/ml), rhTNF 7.5 ng/ml, antibody 4 µg/ml (no antibody: 2.56) [ng/mL] | IC50: concentration of fusion protein required to inhibit 2 ng/ml (39.2 pM) TNFα by 50%, WEHI 164 cytotoxicity assay [pM] |
| --- | --- | --- | --- | --- |
| B1 | 1.6 | 1.96 | 2.16 | – |
| B2 | – | – | – | 70 |
